According to PMC10611974:

Molecular target: APOBEC3B (A3B) C-terminal domain (ctd)-Cas9n-Ugi (human | S. pyogenes | not stated)

B1: Epstein-Barr virus ribonucleotide reductase large subunit, BORF2 (natural protein)
chain: MATTSHVEHELLSKLIDELKVKANSDPEADVLAGRLLHRLKAESVTHTVAEYLEVFSDKFYDEEFFQMHRDELETRVSAFAQSPAYERIVSSGYLSALRYYDTYLYVGRSGKQESVQHFYMRLAGFCASTTCLYAGLRAALQRARPEIESDMEVFDYYFEHLTSQTVCCSTPFMRFAGVENSTLASCILTTPDLSSEWDVTQALYRHLGRYLFQRAGVGVGVTGAGQDGKHISLLMRMINSHVEYHNYGCKRPVSVAAYMEPWHSQIFKFLETKLPENHERCPGIFTGLFVPELFFKLFRDTPWSDWYLFDPKDAGDLERLYGEEFEREYYRLVTAGKFCGRVSIKSLMFSIVNCAVKAGSPFILLKEACNAHFWRDLQGEAMNAANLCAEVLQPSRKSVATCNLANICLPRCLVNAPLAVRAQRADTQGDELLLALPRLSVTLPGEGAVGDGFSLARLRDATQCATFVVACSILQGSPTYDSRDMASMGLGVQGLADVFADLGWQYTDPPSRSLNKEIFEHMYFTALCTSSLIGLHTRKIFPGFKQSKYAGGWFHWHDWAGTDLSIPREIWSRLSERIVRDGLFNSQFIALMPTSGCAQVTGCSDAFYPFYANASTKVTNKEEALRPNRSFWRHVRLDDREALNLVGGRVSCLPEALRQRYLRFQTAFDYNQEDLIQMSRDRAPFVDQSQSHSLFLREEDAARASTLANLLVRSYELGLKTIMYYCRIEKAADLGVMECKASAALSVPREEQNERSPAEQMPPRPMEPAQVAGPVDIMSKGPGEGPGGWCVPGGLEVCYKYRQLFSEDDLLETDGFTERACESCQ
For B1, the inhibition of A3Bctd CBE editing of the chromosomally integrated TC reporter (eGFP) in 293T cells, flow cytometry, 72 h post-transfection was 4.9 fold.
